Settings in all cases: both partners purified
The target of experiment [1] is Histones H3–H4 (H3 C110A-H4 E63C), Alexa488-labeled (Xenopus laevis, maleimide AlexaFluor-488 on E63C). Nature of the experiment: fluorescence polarisation; 10 nM Alexa488-labeled H3–H4 with increasing CAF-1, Polϵ, Polδ or RPA; 25 mM TRIS pH 7.5, 300 mM NaCl, 5% glycerol, 1 mM EDTA, 0.01% IGEPAL, 0.01% CHAPS, 1 mM DTT; one site binding curve. For orientation: Fluorescence polarisation rises when a labelled molecule tumbles more slowly, as on binding a larger partner.

In experiment [2] the target is T1, Chromatin Assembly Factor-1 (CAF-1), wild type (yeast, UniProt Q12495 1-606; Q04199 1-468; P13712 1-422).
T1 construct: Cac1, large subunit of yeast CAF-1; Cac2, subunit of yeast CAF-1; Cac3, subunit of yeast CAF-1; Heterotrimer Cac1-Cac2-Cac3; also called WT CAF-1; copies: + +
Nature of the experiment: SEC; PCNA (30 μM) loaded on nicked pUC19 (0.3 μM) by RFCΔN (0.5 μM) with 10 mM MgCl2 and 3 mM ATP, then CAF-1 (5 μM), 15 min room temperature; Superose 6 increase 3.2/300 in 50 mM HEPES pH 7.5, 200 mM NaCl, 0.01% IGEPAL, 1 mM TCEP, 10 mM MgCl2; fractions on SDS-PAGE. (In general: Size exclusion chromatography separates by hydrodynamic size, large species first.)

For experiment [3], the target named is T1, Chromatin Assembly Factor-1 (CAF-1), …. In words: cross-linking; limiting PCNA: 50 nM AF546-PCNA K164C loaded on nicked pUC19 (15 nM) by full-length RFC (15 nM), CAF-1 titrated 0-1 μM, 100-110 mM NaCl; 0.2% glutaraldehyde; nuclease digestion; SDS-PAGE, PCNA fluorescence, band intensities; affinities estimated.
In experiment [4] the target is T2, Clamp loader RFC (RFC1-5), full-length (yeast, UniProt P38630 1-861; P40348 1-353; P38629 1-340; P40339 1-323; P38251 1-354).
T2 construct: Rfc1, yeast replication factor C subunit 1; Rfc2, yeast replication factor C subunit 2; Rfc3, yeast replication factor C subunit 3; Rfc4, yeast replication factor C subunit 4; Rfc5, yeast replication factor C subunit 5; also called full-length RFC; copies: + + + +
The description is as above.

Changes are numbered by the printed parent chain. Names and notes keep the numbering of the source.

Here are results for 3 molecules from PMC10164577, “CAF-1 deposits newly synthesized histones during DNA replication using distinct mechanisms on the leading and lagging strands” (Nucleic Acids Research, 2022).

B1: DNA polymerase delta (Polδ) (complex)
chain 1: MSEKRSLPMVDVKIDDEDTPQLEKKIKRQSIDHGVGSEPVSTIEIIPSDSFRKYNSQGFKAKDTDLMGTQLESTFEQELSQMEHDMADQEEHDLSSFERKKLPTDFDPSLYDISFQQIDAEQSVLNGIKDENTSTVVRFFGVTSEGHSVLCNVTGFKNYLYVPAPNSSDANDQEQINKFVHYLNETFDHAIDSIEVVSKQSIWGYSGDTKLPFWKIYVTYPHMVNKLRTAFERGHLSFNSWFSNGTTTYDNIAYTLRLMVDCGIVGMSWITLPKGKYSMIEPNNRVSSCQLEVSINYRNLIAHPAEGDWSHTAPLRIMSFDIECAGRIGVFPEPEYDPVIQIANVVSIAGAKKPFIRNVFTLNTCSPITGSMIFSHATEEEMLSNWRNFIIKVDPDVIIGYNTTNFDIPYLLNRAKALKVNDFPYFGRLKTVKQEIKESVFSSKAYGTRETKNVNIDGRLQLDLLQFIQREYKLRSYTLNAVSAHFLGEQKEDVHYSIISDLQNGDSETRRRLAVYCLKDAYLPLRLMEKLMALVNYTEMARVTGVPFSYLLARGQQIKVVSQLFRKCLEIDTVIPNMQSQASDDQYEGATVIEPIRGYYDVPIATLDFNSLYPSIMMAHNLCYTTLCNKATVERLNLKIDEDYVITPNGDYFVTTKRRRGILPIILDELISARKRAKKDLRDEKDPFKRDVLNGRQLALKISANSVYGFTGATVGKLPCLAISSSVTAYGRTMILKTKTAVQEKYCIKNGYKHDAVVVYGDTDSVMVKFGTTDLKEAMDLGTEAAKYVSTLFKHPINLEFEKAYFPYLLINKKRYAGLFWTNPDKFDKLDQKGLASVRRDSCSLVSIVMNKVLKKILIERNVDGALAFVRETINDILHNRVDISKLIISKTLAPNYTNPQPHAVLAERMKRREGVGPNVGDRVDYVIIGGNDKLYNRAEDPLFVLENNIQVDSRYYLTNQLQNPIISIVAPIIGDKQANGMFVVKSIKINTGSQKGGLMSFIKKVEACKSCKGPLRKGEGPLCSNCLARSGELYIKALYDVRDLEEKYSRLWTQCQRCAGNLHSEVLCSNKNCDIFYMRVKVKKELQEKVEQLSKW
chain 2: MDALLTKFNEDRSLQDENLSQPRTRVRIVDDNLYNKSNPFQLCYKKRDYGSQYYHIYQYRLKTFRERVLKECDKRWDAGFTLNGQLVLKKDKVLDIQGNQPCWCVGSIYCEMKYKPNVLDEVINDTYGAPDLTKSYTDKEGGSDEIMLEDESGRVLLVGDFIRSTPFITGVVVGILGMEAEAGTFQVLDICYPTPLPQNPFPAPIATCPTRGKIALVSGLNLNNTSPDRLLRLEILREFLMGRINNKIDDISLIGRLLICGNSVDFDIKSVNKDELMISLTEFSKFLHNILPSISVDIMPGTNDPSDKSLPQQPFHKSLFDKSLESYFNGSNKEILNLVTNPYEFSYNGVDVLAVSGKNINDICKYVIPSNDNGESENKVEEGESNDFKDDIEHRLDLMECTMKWQNIAPTAPDTLWCYPYTDKDPFVLDKWPHVYIVANQPYFGTRVVEIGGKNIKIISVPEFSSTGMIILLDLETLEAETVKIDI
chain 3: MDQKASYFINEKLFTEVKPVLFTDLIHHLKIGPSMAKKLMFDYYKQTTNAKYNCVVICCYKDQTIKIIHDLSNIPQQDSIIDCFIYAFNPMDSFIPYYDIIDQKDCLTIKNSYELKVSESSKIIERTKTLEEKSKPLVRPTARSKTTPEETTGRKSKSKDMGLRSTALLAKMKKDRDDKETSRQNELRKRKEENLQKINKQNPEREAQMKELNNLFVEDDLDTEEVNGGSKPNSPKETDSNDKDKNNDDLEDLLETTAEDSLMDVPKIQQTKPSETEHSKEPKSEEEPSSFIDEDGYIVTKRPATSTPPRKPSPVVKRALSSSKKQETPSSNKRLKKQGTLESFFKRKAK
As usually defined, the Kd is the equilibrium constant for the complex coming apart. Consider B1, for which the dissociation constant Kd in experiment [1] was ≥ 300 nM.

B2: Proliferating Cell Nuclear Antigen (PCNA), wild type (natural protein, yeast, UniProt P15873 1-258, looked up)
chain: MLEAKFEEASLFKRIIDGFKDCVQLVNFQCKEDGIIAQAVDDSRVLLVSLEIGVEAFQEYRCDHPVTLGMDLTSLSKILRCGNNTDTLTLIADNTPDSIILLFEDTKKDRIAEYSLKLMDIDADFLKIEELQYDSTLSLPSSEFSKIVRDLSQLSDSINIMITKETIKFVADGDIGSGSVIIKPFVDMEHPETSIKLEMDQPVDLTFGAKYLLDIIKGSSLSDRVGIRLSSEAPALFQFDLKSGFLQFFLAPKFNDEE
notes: PCNA, yeast; homotrimeric clamp; In the SEC experiments loaded onto nicked pUC19 by RFCΔN and ATP
On to B2, for which the binding result in experiment [2] is “binds”.

B3: PCNA K164C, labeled with Alexa Fluor 546 (natural protein, yeast, UniProt P15873 1-258, looked up)
chain: B2 chain with K164C
modifications: labeled with Alexa Fluor 546
notes: PCNA, yeast, K164C; also called fluorescently labeled PCNA; source: made by standard mutagenesis, purified following the wild-type protocol
Consider B3, for which the Kd in experiment [3] is ~100 nM. In addition, in experiment [4], the binding result was “binds”.
